The values below come from the supplement of paper PMC12042874.

± gives the uncertainty stated by the source.

A short description of the data set: amyloid nucleation score (Sup35N fusion, yeast selection) (log enrichment); library NNK2; higher = more nucleation; inactive = no reads after selection. The procedure, abridged: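 The nucleation score is a DiMSum log enrichment of output over input reads, centred on the mode score of non-aggregating sequences. Sequences under 100 input reads were excluded, and reads came from Illumina sequencing of plasmid inserts. Psi-negative yeast expressing Sup35N fused to peptides of 20 random codons were induced with 100 μM copper sulfate for 24 hours and grown 7 days at 30°C on medium lacking adenine and uracil. Random libraries had three technical output replicates.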

YTVFSTESPCWISQSKLRLA registered an amyloid nucleation score of -0.825 ± 0.78.

The substance MSSRTHLARRHPVMDVCCSR showed an amyloid nucleation score of 6.639 ± 0.036.

As to RQTSLKRL, the amyloid nucleation score is -0.159 ± 1.

For the substance ICQCPVNTANTQLGVGTRLK, the amyloid nucleation score was found to be 0.114 ± 0.5.

For the substance VMGGDVYTAFTDAEDVDSWG, the amyloid nucleation score is 0.398 ± 0.22.

Regarding LCSCANCLYSFFTG, the amyloid nucleation score was 8.04 ± 0.023.

Regarding LFDVMIQTRCLYHWNSPHNL, the amyloid nucleation score came to 5.14 ± 0.065.

Consider ESADQWAVTMVGRHFYLVLR, for which the amyloid nucleation score worked out at 0.294 ± 1.1.

In the case of FFLSNWAAF, the amyloid nucleation score came to 0.234 ± 0.55.

The substance WHSTVSLWSHPFPHKATKEP returned an amyloid nucleation score of 0.256 ± 0.42.

The substance SMYSLTVVNLRVRFLVVWGW displayed an amyloid nucleation score of 0.615 ± 0.5.

Substance LSVFVSGAPQIKLSNMVVKN came in with an amyloid nucleation score of -0.348 ± 0.76.

The substance SHLPVWTSKNARSRCDP displayed an amyloid nucleation score of 0.602 ± 0.25.

FVLRIDNC returned an amyloid nucleation score of 0.735 ± 0.39.

The substance LARYFAKKLYNFYFLAFTGW returned an amyloid nucleation score of 1.14 ± 0.29.

In the case of SRVIWHDSQLFVVFSSTAYK, the amyloid nucleation score was 4.04 ± 0.041.

On to FYLNKDNLWNSNLGGSAHKC, for which the amyloid nucleation score was -2.38 ± 1.1.

LWSEGMTLASADCR showed an amyloid nucleation score of 0.721 ± 0.22.

YYVFYMVVVCNVITIRQNHM: the amyloid nucleation score is 1.49 ± 0.28.

The substance MMGRTTWMDIKIYWENQCAE came in with an amyloid nucleation score of -0.176 ± 1.1.

SYPFYVFSSNASSTAVIKLT: the amyloid nucleation score amounted to 1.07 ± 0.19.

For WFIGS, the amyloid nucleation score entry was “inactive”.

In the case of KNCFMIV, the amyloid nucleation score was -2.26 ± 1.

MVKSHLMTKFCD: the amyloid nucleation score is -0.394 ± 0.34.

With QWLKTVSLS, the amyloid nucleation score was found to be 0.449 ± 0.8.

As for VGTWATFYVLTCKGEFDPGL, the amyloid nucleation score came to 7.83 ± 0.083.

Turning to SSTKIFHLL, the amyloid nucleation score result is “inactive”.

For LVLIFMDLSTGWLLSSISDI, the amyloid nucleation score was found to be 2.33 ± 0.066.

Substance ERSNSRVVDL showed an amyloid nucleation score of -0.539 ± 0.44.

Consider VFNWTNLHYLMAQESVMGY, for which the amyloid nucleation score stood at 0.148 ± 0.35.

YKWIIESRMGALPKQLCRRA gave an amyloid nucleation score of -0.465 ± 0.42.

Turning to CLRLFTQSGFE, the amyloid nucleation score is -0.362 ± 0.38.

The substance RNIIFTWGLCC yielded an amyloid nucleation score of 5.913 ± 0.035.

MQISKQTFPHNWVVYRSDYG yielded an amyloid nucleation score of -0.776 ± 1.1.

IGILSREGYWGGNRFLGYQL yielded an amyloid nucleation score of -1.32 ± 0.62.

The substance IESSVCPGRRPGLLPTLKAG displayed an amyloid nucleation score of 0.901 ± 0.31.

With YLSLVKSPLSSLNSFWTWM, the amyloid nucleation score was -0.348 ± 0.23.

As to DGSMFGPDVCFYIVSLILPF, the amyloid nucleation score was determined as 5.03 ± 0.07.

In the case of YGIHTFSRYGVIWSCVSV, the amyloid nucleation score was -0.64 ± 0.49.

The substance SFKFFTVQF had an amyloid nucleation score of 6.66 ± 0.088.

For HIKDNQSSSV, the amyloid nucleation score came out at 0.196 ± 0.44.

LSHLISFRLTTTSNFRFWDH returned an amyloid nucleation score of 3.15 ± 0.093.

In turn, MCYHDSVNNERINMGVLLHV registered an amyloid nucleation score of 0.067 ± 0.56.

In turn, VKMMWNCSLVDALATRGNVV displayed an amyloid nucleation score of 0.505 ± 0.54.

With AFLNFTDRKSQWKVMVIEFL, the amyloid nucleation score came out at 3.3 ± 0.096.

TRYYMYIRDVH returned an amyloid nucleation score of -0.533 ± 0.44.

Regarding YKPRGHEVRSVG, the amyloid nucleation score is -0.752 ± 0.48.

In turn, IVDISCI gave an amyloid nucleation score of -0.541 ± 1.

CLAISWEGWSNSFGRYVVGW came in with an amyloid nucleation score of 1.86 ± 0.1.

As for LDRYLG, the amyloid nucleation score turned out to be 0.064 ± 0.3.

RLSIHKSFVFDLTRSALSTM yielded an amyloid nucleation score of -0.293 ± 0.55.

For SGFNNISMKQLWWT, the amyloid nucleation score entry is “inactive”.

The substance GLLGWMGAYGANPCYPTTLF displayed an amyloid nucleation score of 0.515 ± 0.8.

For CLVVLISVVPMVGSLFSRCG, the amyloid nucleation score entry is “inactive”.

In turn, MNLAVGWSHSPDQDLYYPML gave an amyloid nucleation score of -0.339 ± 0.56.

On to YWLECILSGVYHDGYDSYSL, for which the amyloid nucleation score result was “inactive”.

Substance AVEAYNMSNYLLRYISGSV registered an amyloid nucleation score of -0.109 ± 0.65.

NETCGYLNKNWLL returned an amyloid nucleation score of 0.04 ± 0.45.

Take YYWASRLVMPCSNRWRLYLQ: the amyloid nucleation score was -0.474 ± 1.

Consider FYCVNV, for which the amyloid nucleation score was -0.383 ± 0.64.

For GSYMS, the amyloid nucleation score was found to be 3.54 ± 0.065.

As to SWHQKSELKTCWSLAIQYHT, the amyloid nucleation score is -0.191 ± 0.65.

RCLVREISNPDGSDSIIWLR: the amyloid nucleation score is -0.574 ± 0.55.

CRVYMVDWGVVLRFDVRGSS: the amyloid nucleation score is -0.909 ± 0.78.

As for PSIRWNVIIAMSYLQS, the amyloid nucleation score was 1.89 ± 0.16.

Regarding NCVWNWRHWFTVVNSF, the amyloid nucleation score was found to be 1.95 ± 0.089.

Take SSMLYTYVRLMNMNNIYVAS: the amyloid nucleation score was 0.737 ± 0.62.

ACNFQVCGWERQSSRFR displayed an amyloid nucleation score of 3.14 ± 0.087.

As for LFVVTVTIMCYLSKEYVGLP, the amyloid nucleation score worked out at 0.039 ± 0.51.

QMNVSTYSCNLD: the amyloid nucleation score came out at 0.044 ± 1.1.

Regarding NTNVCSSRRNPVCMMVEVVR, the amyloid nucleation score entry is “inactive”.

Take CLSVCCEDFNRSLTHYASSL: the amyloid nucleation score was -0.743 ± 0.76.

The substance LRGLSAPACKYQWQDEMYD gave an amyloid nucleation score of -0.628 ± 0.45.

For the substance AASRWVVSHKYRWWMMRLMK, the amyloid nucleation score turned out to be 0.302 ± 0.23.

In turn, MMSEVLKDVSCHFIPLGGQV registered an amyloid nucleation score of -0.694 ± 0.48.

Take SHEMGGFHNSNL: the amyloid nucleation score is -1.56 ± 1.

In turn, LPRMGSEWFVCWLCSCVATW came in with an amyloid nucleation score of 0.718 ± 0.57.

For the substance LWLVSRRNACFA, the amyloid nucleation score was -0.408 ± 1.

The substance MLSTTEVCVGPDRD came in with an amyloid nucleation score of 3.89 ± 0.088.

The substance WGHLVWGNTRCLGG returned an amyloid nucleation score of 0.016 ± 1.1.

Substance LSGSPVYCYCRLR registered an amyloid nucleation score of -0.453 ± 0.78.

VDIFMFKAAHIRAKGNVVGL yielded an amyloid nucleation score of -0.429 ± 0.45.

DGKFRRVTLRGPLA returned an amyloid nucleation score of 0.554 ± 0.56.

Substance EDGGLCSASVRLYG showed an amyloid nucleation score of 0.379 ± 0.33.

For the substance SAIDWDFQTIFLLSEFQYGF, the amyloid nucleation score is -1.44 ± 1.1.

As for FPLWSCSHTIINML, the amyloid nucleation score turned out to be 5.858 ± 0.037.

In turn, VCCKLEFVSKHFRCVNGCDE came in with an amyloid nucleation score of 9.264 ± 0.055.

In the case of QFPTCVHKPSCWDF, the amyloid nucleation score was determined as 0.291 ± 0.5.

In the case of LTGNAWSSMIYSNYNMGVYS, the amyloid nucleation score entry is “inactive”.

As for CKWMLEENMGQEADSV, the amyloid nucleation score is -0.289 ± 0.21.

For YRLGGWEVNWRLDFYHRRGM, the amyloid nucleation score was 1.21 ± 0.32.

As for IKAFWS, the amyloid nucleation score result was “inactive”.

HYQWQYACLWRCVTVRGSDQ had an amyloid nucleation score of 0.949 ± 0.17.

Consider NSRSLTDTHDCMVTGWATRH, for which the amyloid nucleation score is -0.159 ± 0.45.

In the case of RSERPFAWVMALTFTCAGGL, the amyloid nucleation score turned out to be 3.47 ± 0.11.

Consider GFVLILTAIYVVGCINICAM, for which the amyloid nucleation score was 5.66 ± 0.064.

In turn, HAYYHLILDVLFPDGLWL displayed an amyloid nucleation score of -0.938 ± 0.36.

In turn, RKDSCCSVNRCDAMSFVRGI yielded an amyloid nucleation score of 0.073 ± 1.1.

In turn, LQVRSDSMNGFNW yielded an amyloid nucleation score of -0.61 ± 1.1.

WPIMMYGKFVFDRHIHCGAL gave an amyloid nucleation score of 0.141 ± 0.41.

In turn, AYVRNAIGTMFLLALSHRGD returned an amyloid nucleation score of -0.345 ± 0.48.

Turning to FSDDLVRDV, the amyloid nucleation score was -0.505 ± 0.28.

Substance YICVTMPVWIH came in with an amyloid nucleation score of 7.536 ± 0.042.

TASWNWLGIVRAGF had an amyloid nucleation score of 1.08 ± 0.27.
